This note sets out measurements from publication PMC8570500 (2021).

B1: HA-Vpx HIV-2.Gh1 WT [HIV-2 (Ghana-1 strain)] / DCAF1, endogenous (DDB1- and Cul4A-associated factor 1) [human (endogenous in HeLa)] (parent complex)
chain 1: MTDPRERVPPGNSGEETIGEAFEWLDRTIEALNREAVNHLPRELIFQVWQRSWRYWHDDQGMSPSYTKYRYLCLMQKAVFIHFKRGCTCLGGGHGPGGWRSGPPPPPPPGLV
chain 2: not shown

The first assay covers variants of B1. Put plainly: co-immunoprecipitation (anti-Flag IP of TASOR-Flag, western blot band quantification); Ternary read-out: endogenous DCAF1 recovered with TASOR-Flag (m24) in the presence of this HA-Vpx mutant, HeLa cells; lane 11; no value printed for the WT lane. For orientation: In western blotting, separated proteins are transferred to a membrane and probed.
As to chain 1 V48A, the screen value was 0.5.

The variants in the next assay derive from B1. In words: co-immunoprecipitation (anti-Flag IP of TASOR-Flag, western blot band quantification); Ternary read-out: endogenous DCAF1 recovered with TASOR-Flag (m24) in the presence of this HA-Vpx mutant, HeLa cells; lane 10; no value printed for the WT lane.
Turning to chain 1 Q47A, the screen value is 1.

In the next assay the parent is B1. In words: co-immunoprecipitation (anti-Flag IP of TASOR-Flag, western blot band quantification); Ternary read-out: endogenous DCAF1 recovered with TASOR-Flag (m24) in the presence of this HA-Vpx mutant, HeLa cells; lane 12; no value printed for the WT lane.
In the case of chain 1 Q47A, chain 1 V48A, the screen value was found to be 0.2.
